B1: BBSome complex member BBS1 (Homo sapiens), Q8NFJ9 (parent)
chain: MAAASSSDSDACGAESNEANSKWLDAHYDPMANIHTFSACLALADLHGDGEYKLVVGDLGPGGQQPRLKVLKGPLVMTESPLPALPAAAATFLMEQHEPRTPALALASGPCVYVYKNLRPYFKFSLPQLPPNPLEQDLWNQAKEDRIDPLTLKEMLESIRETAEEPLSIQSLRFLQLELSEMEAFVNQHKSNSIKRQTVITTMTTLKKNLADEDAVSCLVLGTENKELLVLDPEAFTILAKMSLPSVPVFLEVSGQFDVEFRLAAACRNGNIYILRRDSKHPKYCIELSAQPVGLIRVHKVLVVGSTQDSLHGFTHKGKKLWTVQMPAAILTMNLLEQHSRGLQAVMAGLANGEVRIYRDKALLNVIHTPDAVTSLCFGRYGREDNTLIMTTRGGGLIIKILKRTAVFVEGGSEVGPPPAQAMKLNVPRKTRLYVDQTLREREAGTAMHRAFQTDLYLLRLRAARAYLQALESSLSPLSTTAREPLKLHAVVQGLGPTFKLTLHLQNTSTTRPVLGLLVCFLYNEALYSLPRAFFKVPLLVPGLNYPLETFVESLSNKGISDIIKVLVLREGQSAPLLSAHVNMPGSEGLAAA
partner: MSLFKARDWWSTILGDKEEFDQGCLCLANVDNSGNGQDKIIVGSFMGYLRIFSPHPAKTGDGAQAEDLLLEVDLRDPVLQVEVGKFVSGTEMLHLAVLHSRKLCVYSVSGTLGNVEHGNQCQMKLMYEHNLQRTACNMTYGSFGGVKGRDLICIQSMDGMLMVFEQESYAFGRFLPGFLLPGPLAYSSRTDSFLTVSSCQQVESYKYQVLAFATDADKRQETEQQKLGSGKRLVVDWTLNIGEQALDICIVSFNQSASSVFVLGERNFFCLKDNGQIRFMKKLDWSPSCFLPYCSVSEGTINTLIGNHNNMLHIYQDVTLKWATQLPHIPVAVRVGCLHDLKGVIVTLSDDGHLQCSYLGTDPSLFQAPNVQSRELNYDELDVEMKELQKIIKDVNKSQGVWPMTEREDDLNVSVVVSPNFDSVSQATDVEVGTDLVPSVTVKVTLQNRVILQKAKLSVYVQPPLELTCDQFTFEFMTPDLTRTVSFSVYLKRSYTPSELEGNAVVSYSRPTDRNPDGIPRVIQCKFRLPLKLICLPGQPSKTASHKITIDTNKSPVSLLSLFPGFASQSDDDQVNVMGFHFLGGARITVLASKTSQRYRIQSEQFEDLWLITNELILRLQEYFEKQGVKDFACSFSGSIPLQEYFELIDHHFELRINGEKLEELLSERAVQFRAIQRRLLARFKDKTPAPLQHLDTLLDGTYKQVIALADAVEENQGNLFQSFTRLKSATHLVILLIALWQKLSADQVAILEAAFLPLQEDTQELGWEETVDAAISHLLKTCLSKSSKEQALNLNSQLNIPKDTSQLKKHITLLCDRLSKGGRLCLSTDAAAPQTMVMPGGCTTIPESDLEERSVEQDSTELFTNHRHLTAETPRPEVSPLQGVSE

In this test the parent is B1. To be noted: with pthb1_human BBS9, Q3SYG4.
As for MAAASSSDSDACGAESNEANSKWLDAHYDPMANIHTFSACLALADLHGDGEYKLVVGDLGPGGQQPRLKVLKGPLVMTESPLPALPAAAATFLMEQHEPRTPALALASGPCVYVYKNLRPYFKFSLPQLPPNPLEQDLWNQAKEDRIDPLTLKEMLESIRETAEEPLSIQSLRFLQLELSEMEAFVNQHKSNSIKRQTVITTMTTLKKNLADEDAVSCLVLGTENKELLVLDPEAFTILAKMSLPSVPVFLEVSGQFDVEFRLAAACRNGNIYILRRDSKHPKYCIELSAQPVGLIRVHKVLVVGSTQDSLHGFTHKGKKLWTVQMPAAILTMNLLEQHSRGLQAVMAGLANGEVRIYRDKALLNVIHTPDAVTSLCFGRYGREDNTLIMTTRGGGLIIKILKRTAVFVEGGSEVGPPPAQAMKLNVPRKTRLYVDQTLREREAGTAMHRAFQTDLYLLRLRAARAYLQALESSLSPLSTTAREPLKLHAVVQGLGPTFKLTLHLQNTSTTRPVLGLPVCFLYNEALYSLPRAFFKVPLLVPGLNYPLETFVESLSNKGISDIIKVLVLREGQSAPLLSAHVNMPGSEGLAAA [L518P], the “effect of a mutation on the interaction” value was “disrupting interaction strength”.

MAAASSSDSDACGAESNEANSKWLDAHYDPMANIHTFSACLALADLHGDGEYKLVVGDLGPGGQQPRLKVLKGPLVMTESPLPALPAAAATFLMEQHEPRTPALALASGPCVYVYKNLRPYFKFSLPQLPPNPLEQDLWNQAKEDRIDPLTLKEMLESIRETAEEPLSIQSLRFLQLELSEMEAFVNQHKSNSIKRQTVITTMTTLKKNLADEDAVSCLVLGTENKELLVLDPEAFTILAKMSLPSVPVFLEVSGQFDVEFRLAAACRNGNIYILRRDSKHPKYCIELSAQPVGLIRVHKVLVVGSTQDSLHGFTHKGKKLWTVQMPAAILTMNLLEQHSRGLQAVMAGLANGEVRIYRDKALLNVIHTPDAVTSLCFGRYGREDNTLIMTTRGGGLIIKILKRTAVFVEGGSEVGPPPAQAMKLNVPRKTRLYVDQTLREREAGTAMHRAFQTDLYLLRLRAARAYLQALESSLSPLSTTAREPLKLHAVVQGLGPTFKLTLHLQNTSTTRPVLGLEVCFLYNEALYSLPRAFFKVPLLVPGLNYPLETFVESLSNKGISDIIKVLVLREGQSAPLLSAHVNMPGSEGLAAA [L518E]: the “effect of a mutation on the interaction” value is “with no effect”.

As for MAAASSSDSDACGAESNEANSKWLDAHYDPMANIHTFSACLALADLHGDGEYKLVVGDLGPGGQQPRLKVLKGPLVMTESPLPALPAAAATFLMEQHEPRTPALALASGPCVYVYKNLRPYFKFSLPQLPPNPLEQDLWNQAKEDRIDPLTLKEMLESIRETAEEPLSIQSLRFLQLELSEMEAFVNQHKSNSIKRQTVITTMTTLKKNLADEDAVSCLVLGTENKELLVLDPEAFTILAKMSLPSVPVFLEVSGQFDVEFRLAAACRNGNIYILRRDSKHPKYCIELSAQPVGLIRVHKVLVVGSTQDSLHGFTHKGKKLWTVQMPAAILTMNLLEQHSRGLQAVMAGLANGEVRIYRDKALLNVIHTPDAVTSLCFGRYGREDNTLIMTTRGGGLIIKILKRTAVFVEGGSEVGPPPAQAMKLNVPRKTRLYVDQTLREREAGTAMHRAFQTDLYLLRLRAARAYLQALESSLSPLSTTAREPLKLHAVVQGLGPTFKLTLHLQNTSTTRPVLGLLKCFLYNEALYSLPRAFFKVPLLVPGLNYPLETFVESLSNKGISDIIKVLVLREGQSAPLLSAHVNMPGSEGLAAA [V519K], the “effect of a mutation on the interaction” value is given as “disrupting interaction strength”.

For the variant MAAASSSDSDACGAESNEANSKWLDAHYDPMANIHTFSACLALADLHGDGEYKLVVGDLGPGGQQPRLKVLKGPLVMTESPLPALPAAAATFLMEQHEPRTPALALASGPCVYVYKNLRPYFKFSLPQLPPNPLEQDLWNQAKEDRIDPLTLKEMLESIRETAEEPLSIQSLRFLQLELSEMEAFVNQHKSNSIKRQTVITTMTTLKKNLADEDAVSCLVLGTENKELLVLDPEAFTILAKMSLPSVPVFLEVSGQFDVEFRLAAACRNGNIYILRRDSKHPKYCIELSAQPVGLIRVHKVLVVGSTQDSLHGFTHKGKKLWTVQMPAAILTMNLLEQHSRGLQAVMAGLANGEVRIYRDKALLNVIHTPDAVTSLCFGRYGREDNTLIMTTRGGGLIIKILKRTAVFVEGGSEVGPPPAQAMKLNVPRKTRLYVDQTLREREAGTAMHRAFQTDLYLLRLRAARAYLQALESSLSPLSTTAREPLKLHAVVQGLGPTFKLTLHLQNTSTTRPVLGLLACFLYNEALYSLPRAFFKVPLLVPGLNYPLETFVESLSNKGISDIIKVLVLREGQSAPLLSAHVNMPGSEGLAAA [V519A], the “effect of a mutation on the interaction” value is on record as “with no effect”.

On to MAAASSSDSDACGAESNEANSKWLDAHYDPMANIHTFSACLALADLHGDGEYKLVVGDLGPGGQQPRLKVLKGPLVMTESPLPALPAAAATFLMEQHEPRTPALALASGPCVYVYKNLRPYFKFSLPQLPPNPLEQDLWNQAKEDRIDPLTLKEMLESIRETAEEPLSIQSLRFLQLELSEMEAFVNQHKSNSIKRQTVITTMTTLKKNLADEDAVSCLVLGTENKELLVLDPEAFTILAKMSLPSVPVFLEVSGQFDVEFRLAAACRNGNIYILRRDSKHPKYCIELSAQPVGLIRVHKVLVVGSTQDSLHGFTHKGKKLWTVQMPAAILTMNLLEQHSRGLQAVMAGLANGEVRIYRDKALLNVIHTPDAVTSLCFGRYGREDNTLIMTTRGGGLIIKILKRTAVFVEGGSEVGPPPAQAMKLNVPRKTRLYVDQTLREREAGTAMHRAFQTDLYLLRLRAARAYLQALESSLSPLSTTAREPLKLHAVVQGLGPTFKLTLHLQNTSTTRPVLGLLECFLYNEALYSLPRAFFKVPLLVPGLNYPLETFVESLSNKGISDIIKVLVLREGQSAPLLSAHVNMPGSEGLAAA [V519E], for which the “effect of a mutation on the interaction” value is on record as “disrupting interaction strength”.
